# Experimental data as given in the supplement of paper PMC9233669.
# Variants at the floor of the assay were thinned out.
# Experiments:
# biotinyl-Phe-oxazolone = test: self-aminoacylation, catalytic enhancement (BFO) (fold over background); higher = more active; k-Seq, kA / k0A0; sequences stand for … in GGGAAUGGAUCCACAUCUACGAAUUC…UUCACUGCAGACUUGACGAAGCUG
# How it was run: (§1)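 Working in 50 μL HEPES/NaCl/KCl/MgCl2/CaCl2 buffer with 5% acetonitrile at pH 6.9–7.0, mutagenized RNA pools (0.43 μM; 21-nt variable region) were reacted with 2–1250 μM of each biotinyl-aminoacyl-oxazolone for 90 minutes at room temperature. Streptavidin capture followed, with quantification by triplicate qPCR and Illumina sequencing. Catalytic enhancement is reported as median kA over the uncatalyzed rate, the low-activity peak of a bimodal Gaussian fit to the data.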
# biotinyl-Trp-oxazolone = test: self-aminoacylation, catalytic enhancement (BWO) (fold over background); higher = more active; k-Seq, kA / k0A0; sequences stand for … in GGGAAUGGAUCCACAUCUACGAAUUC…UUCACUGCAGACUUGACGAAGCUG
# How it was run: as §1
# biotinyl-Val-oxazolone = test: self-aminoacylation, catalytic enhancement (BVO) (fold over background); higher = more active; k-Seq, kA / k0A0; sequences stand for … in GGGAAUGGAUCCACAUCUACGAAUUC…UUCACUGCAGACUUGACGAAGCUG
# How it was run: as §1
# biotinyl-Met-oxazolone = test: self-aminoacylation, catalytic enhancement (BMO) (fold over background); higher = more active; k-Seq, kA / k0A0; sequences stand for … in GGGAAUGGAUCCACAUCUACGAAUUC…UUCACUGCAGACUUGACGAAGCUG
# How it was run: as §1
# biotinyl-Ile-oxazolone = test: self-aminoacylation, catalytic enhancement (BIO) (fold over background); higher = more active; k-Seq, kA / k0A0; sequences stand for … in GGGAAUGGAUCCACAUCUACGAAUUC…UUCACUGCAGACUUGACGAAGCUG
# How it was run: as §1
# biotinyl-Leu-oxazolone = test: self-aminoacylation, catalytic enhancement (BLO) (fold over background); higher = more active; k-Seq, kA / k0A0; sequences stand for … in GGGAAUGGAUCCACAUCUACGAAUUC…UUCACUGCAGACUUGACGAAGCUG
# How it was run: as §1
Sequence,self-aminoacylation (biotinyl-Phe-oxazolone),self-aminoacylation (biotinyl-Trp-oxazolone),self-aminoacylation (biotinyl-Val-oxazolone),self-aminoacylation (biotinyl-Met-oxazolone),self-aminoacylation (biotinyl-Ile-oxazolone),self-aminoacylation (biotinyl-Leu-oxazolone)
AUUCACCUAGGUCAUCGCAUG [Fam2.2 aminoacylation ribozyme variant],0.374,1.06,1.28,1.04,1.05,1.22
GUUCACGUAGGUCAUCGGGUG [Fam2.2 aminoacylation ribozyme variant],30.3,5.39,4.2,4.57,3.06,4.45
AAGGUUGCUAAUAGUCGCAUG [Fam3.1 aminoacylation ribozyme variant],2.16,2,1.34,1.34,1.66,1.45
AAGUUUACUAAUAGUAGCAAG [Fam3.1 aminoacylation ribozyme variant],1.97,0.98,1.22,1.28,1.54,1.17
AUUCACCUACGUAAUCGGGUG [Fam2.2 aminoacylation ribozyme variant],45.9,5.66,3.4,6.45,3.09,9.03
AUUCACGUAUGUCAUCGGGUG [Fam2.2 aminoacylation ribozyme variant],73.5,7.42,5.58,8.47,5.2,9.38
AUUACCCCGGUUAUCGAGUGA [Fam2.1 aminoacylation ribozyme variant],32.1,5.95,2.74,6.01,2.72,6.39
CGACACUGCAAGCAAUCGGUC [Fam1B.1 aminoacylation ribozyme variant],1.4,1.82,1.47,1.26,1.52,1.37
AUUCACCUUAGUCAUCGGGUG [Fam2.2 aminoacylation ribozyme variant],38.8,5.66,3.83,6.02,3.73,7.94
AGUCACCCAGGUCAUCGGGUG [Fam2.2 aminoacylation ribozyme variant],57.4,4.54,4.29,4.56,5.28,4.72
AUUACCCUGGUCAGCGAGGGA [Fam2.1 aminoacylation ribozyme variant],0.743,2.06,1.19,1.34,1.54,0.891
AUUCACCUUGGUCAUUGGGUG [Fam2.2 aminoacylation ribozyme variant],21.4,3.18,2.17,2.9,2.11,3.56
GUUACCCUGGUCAUAGAGUGA [Fam2.1 aminoacylation ribozyme variant],85.2,14.1,5.04,11.1,5.89,12.6
CCACACUGCGAGCAAUCGGUC [Fam1B.1 aminoacylation ribozyme variant],3.33,1.21,1.51,1.07,1.21,1.25
AUUAGCCUGGUUAUCGAGUGA [Fam2.1 aminoacylation ribozyme variant],74.4,13.7,5.37,11.3,5.67,12.2
AUUCACCUAGGUCAUUUGGUG [Fam2.2 aminoacylation ribozyme variant],21.2,3.43,2.03,3.31,2.13,4.82
AUGACCCUGGUCAUCGAGCGA [Fam2.1 aminoacylation ribozyme variant],3.71,2.48,2.31,2.99,2.2,3.09
AUUCACCUAGUUCAACGGGUG [Fam2.2 aminoacylation ribozyme variant],17.1,2.46,1.73,2.42,1.65,2.88
AAGUUUGCGAGUAGUCGCAAG [Fam3.1 aminoacylation ribozyme variant],1.71,1.32,0.882,0.918,1.12,1.22
CUCCUUCAAACAAUCGGUAUG [Fam1A.1 aminoacylation ribozyme variant],13.8,11.2,0.866,1.07,0.742,1.24
CUACGUCAAACAAUCGAUCUG [Fam1A.1 aminoacylation ribozyme variant],0.827,1.06,0.794,0.903,0.801,0.617
AUUCCCCUAGGUCAUCGGGUA [Fam2.2 aminoacylation ribozyme variant],58.9,10.2,7.57,7.28,7.47,8.16
AUUCACCGAGGUCAUCGGGCG [Fam2.2 aminoacylation ribozyme variant],24.4,2.96,3.86,3.34,3.19,3.66
AUUAUGCUGGUCAUCGAGUGA [Fam2.1 aminoacylation ribozyme variant],14.9,5.2,2.69,4.1,3.15,4.22
UUUCACCUUGGUCAUCGGGUG [Fam2.2 aminoacylation ribozyme variant],45.4,6.96,5.49,6.53,4.31,5.87
CUUCUUCAAACAAUCGAUCUG [Fam1A.1 aminoacylation ribozyme variant],1.98,0.841,0.647,0.672,0.624,0.597

Sequence,self-aminoacylation (biotinyl-Phe-oxazolone),self-aminoacylation (biotinyl-Trp-oxazolone),self-aminoacylation (biotinyl-Val-oxazolone),self-aminoacylation (biotinyl-Met-oxazolone),self-aminoacylation (biotinyl-Ile-oxazolone),self-aminoacylation (biotinyl-Leu-oxazolone)
AAGUUUGCUACUAGUCACAAG [Fam3.1 aminoacylation ribozyme variant],2.36,1.29,1.02,0.969,0.962,0.772
CCACACUUCUAGCAAUCGUUC [Fam1B.1 aminoacylation ribozyme variant],1.04,0.481,1.01,0.511,0.767,0.558
CUACUUCAAACAGUCGGCCUG [Fam1A.1 aminoacylation ribozyme variant],2.1,1.39,1.71,1.77,1.63,1.78
CUACUUCAAACAAUCGGUAUU [Fam1A.1 aminoacylation ribozyme variant],1.15,0.759,0.828,0.852,0.854,0.74
AUACUUCAAACAAUGGGUCUG [Fam1A.1 aminoacylation ribozyme variant],0.774,0.934,0.921,0.862,0.935,0.847
AAUACUCUGGUCAUCGAGUGA [Fam2.1 aminoacylation ribozyme variant],8.91,5.7,2.77,3.85,2.59,3.72
CCGCACUUCAAGCAACCGGUC [Fam1B.1 aminoacylation ribozyme variant],1.29,1.56,1.54,1.47,1.47,1.1
ACUACCCCGGUCAUCGAGUGA [Fam2.1 aminoacylation ribozyme variant],30.8,5.9,2.87,5.95,3.29,5.9
AAGUUUGCUAAUAUUCGUAAG [Fam3.1 aminoacylation ribozyme variant],0.919,0.911,0.779,0.616,0.83,0.636
CCACACUUCAAGUAAUCAGUC [Fam1B.1 aminoacylation ribozyme variant],4.86,1.72,0.723,0.586,0.686,0.635
AUUGACCUAGGUCAUCGAGUG [Fam2.2 aminoacylation ribozyme variant],27.9,6.09,5,9.94,6.03,13.7
AUUCCCCUGGUCAGCGAGUGA [Fam2.1 aminoacylation ribozyme variant],39.5,8.52,4.24,5.69,3.66,7.02
AUUCACCUACGUCAUCGGGUA [Fam2.2 aminoacylation ribozyme variant],0.967,2.18,1.61,1.94,1.58,1.96
AAGUUUGCAAAUAGUCGCUAG [Fam3.1 aminoacylation ribozyme variant],0.824,1.84,0.856,0.905,1.15,1
CCACCCAUCAAGCAAUCGGUC [Fam1B.1 aminoacylation ribozyme variant],0.916,0.951,1.07,0.85,1.06,0.876
GAGUUUGCUAAUAGUCUCAAG [Fam3.1 aminoacylation ribozyme variant],6.85,2.43,1.08,0.852,1.32,0.855
ACAACCCUGGUCAUCGAGUGA [Fam2.1 aminoacylation ribozyme variant],17.4,12.5,5.2,11.4,6.16,12.2
CCACACAUCAAGCAAUCGCUC [Fam1B.1 aminoacylation ribozyme variant],0.869,1.64,1.68,1.04,1.43,1.21
UUUCACCCAGGUCAUCGGGUG [Fam2.2 aminoacylation ribozyme variant],35.1,5.64,4.69,4.86,3.32,4.54
CCACCCUUCAAGCAAUUGGUC [Fam1B.1 aminoacylation ribozyme variant],1.33,1.04,0.984,0.907,0.814,0.814
AUUGAGCUAGGUCAUCGGGUG [Fam2.2 aminoacylation ribozyme variant],26.6,5.57,3.55,3.78,3.41,5.61
CCACACUUCGAGCAAUCGUUC [Fam1B.1 aminoacylation ribozyme variant],0.683,0.469,0.569,0.412,0.516,0.493
UCACACUUCAAGCAAUCGGUU [Fam1B.1 aminoacylation ribozyme variant],8.21,6.74,1.58,1.48,1.3,1.6
AUGCACCUAGGUCAUCGGGGG [Fam2.2 aminoacylation ribozyme variant],7.48,3.3,2.33,2.72,2.4,2.64
CCAAACUUCAAGCAGUCGGUC [Fam1B.1 aminoacylation ribozyme variant],0.806,0.793,1.18,1.01,1.29,1.1
